Data as given in PMC6303401, “A NAC transcription factor, NOR-like1, is a new positive regulator of tomato fruit ripening”.

Biological target: NOR-like1 (Solanum lycopersicum (cv. AC), UniProt K4CH25 1-329)
Test: EMSA; EMSA kit (Thermo Fisher), manufacturer's instructions; buffer, salt, pH and temperature not stated
Conditions: protein: recombinant; tags: GST; chain copies: 2; label: biotin; blunt

NOR-like1, sequence (K4CH25 entry or part of it): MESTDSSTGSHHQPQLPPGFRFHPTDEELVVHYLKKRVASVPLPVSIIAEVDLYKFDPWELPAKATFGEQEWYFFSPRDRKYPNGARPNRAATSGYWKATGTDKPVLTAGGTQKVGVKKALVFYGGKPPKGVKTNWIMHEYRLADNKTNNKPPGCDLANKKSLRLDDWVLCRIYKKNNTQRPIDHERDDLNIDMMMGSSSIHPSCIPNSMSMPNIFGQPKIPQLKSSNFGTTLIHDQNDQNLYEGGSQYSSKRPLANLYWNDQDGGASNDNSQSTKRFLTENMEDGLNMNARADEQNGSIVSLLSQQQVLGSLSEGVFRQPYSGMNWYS

Binder	binding result
SlACS2 wild (dsDNA) DNA 1: AATAAATTCTTTTTGACAGGGTGGCGTAAAAATAATTTTATTTTAAAATA DNA 2: TATTTTAAAATAAAATTATTTTTACGCCACCCTGTCAAAAAGAATTTATT	binds
SlPL wild (dsDNA) DNA 1: TATCAATAACAGATAGTAATTTTACGTAATGATATTGAACGATGTATATA DNA 2: TATATACATCGTTCAATATCATTACGTAAAATTACTATCTGTTATTGATA	binds
SlCEL2 wild (dsDNA) DNA 1: ATCCAATAGCATCCCACCACGTGTCGTAACAATATTGGTTTAACCCCAGG DNA 2: CCTGGGGTTAAACCAATATTGTTACGACACGTGGTGGGATGCTATTGGAT	binds
SlEXP1 wild (dsDNA) DNA 1: CTGAAATTTTAGCTAATTTTAACACGTATTCAATTTTGTATGATTGAATG DNA 2: CATTCAATCATACAAAATTGAATACGTGTTAAAATTAGCTAAAATTTCAG	binds
SlACS4 wild (dsDNA) DNA 1: GTTTTAACTTTTTAAATATTTTGACGTAAGTTTTTTGTTTTCCCCCAAAA DNA 2: TTTTGGGGGAAAACAAAAAACTTACGTCAAAATATTTAAAAAGTTAAAAC	binds
SlSGR1 wild (dsDNA) DNA 1: TAAGCAGTTATGCGTGTGCTGAAGTTGTTATTTCAAACGTGAAAAGGAAA DNA 2: TTTCCTTTTCACGTTTGAAATAACAACTTCAGCACACGCATAACTGCTTA	binds
SlGgpps2 wild (dsDNA) DNA 1: TACGTTTAGGATAGGACTTCATTACGTGTCAAGGACAAAAATAAACCTAT DNA 2: ATAGGTTTATTTTTGTCCTTGACACGTAATGAAGTCCTATCCTAAACGTA	binds
SlPG2a wild (dsDNA) DNA 1: TATTTTAAAAAATACACTTAAAAGCGTGACTAAATATAAATTGTTGCTCA DNA 2: TGAGCAACAATTTATATTTAGTCACGCTTTTAAGTGTATTTTTTAAAATA	binds
